To fix the notation:
B1: synthetic peptide Pro Thr Pro Ser Pro (peptide)
peptide: PTPSP
B2: synthetic peptide Pro Val Pro Ser Thr (peptide)
peptide: PVPST
B3: synthetic peptide Pro Ser Pro Ser Cys (peptide)
peptide: PSPSC
B4: synthetic peptide Pro Ser Thr Pro Pro (peptide)
peptide: PSTPP
B5: synthetic peptide Thr Pro Pro Thr Pro (peptide)
peptide: TPPTP
B6: synthetic peptide Pro Ser Pro Ser Thr (peptide)
peptide: PSPST

We go through six molecules from patent publication US20030017619A1.

Bounds are passed on as bounds.

This test deals with IgG class antibody in the serum of a patient with IgA nephropathy which showed positive in example 1. Put plainly: inhibition ELISA: serum pre-incubated with 1 µg/ml peptide solution (1:1), then added to immobilized hinge peptide-BSA; anti-human IgG, absorbancy at 490 nm.
On to B1, for which the difference in the absorption between the added group and the blank solution was over 10%.
With B2 the figure was over 10%.
In turn, B3 yielded a difference in the absorption between the added group and the blank solution of over 10%.
On to B4, for which the difference in the absorption between the added group and the blank solution was over 10%.
Molecule B5 showed a difference in the absorption between the added group and the blank solution of over 10%.
With B6 the figure was over 10%.
